# Measured values taken from the DeepSol protein solubility set.
# Test: soluble on expression in E. coli; label from the status in PepcDB or PDB records
row,Sequence,soluble on expression in E. coli
1,MKKSVDFIGVGTGPFNLSIAALSHQIEELNCLFFDEHPHFSWHPGMLVPDCHMQTVFLKDLVSAVAPTNPYSFVNYLVKHKKFYRFLTSRLRTVSREEFSDYLRWAAEDMNNLYFSHTVENIDFDKKSRLFLVQTSRGEYFARNICLGTGKQPYLPPCVKHVTQSCFHASEMNLRRPDLSGKRITVVGGGQSGADLFLNALRGEWGEAAEINWVSRRNNFNALDEAAFADEYFTPEYISGFSGLKEDIRHQLLDEQKMTSDGITADSLLTIYRELYHRFEVLRKPRNIRLLPSRSVTTLESSGPGWKLLMEHHLDRGRESLESDVVIFATGYRSALPQILPSLMPLITMHDKNTFKVRDDFTLEWSGPKENNIFAVNASMQTHGIAEPQLSLMAWRSARILNRVLGRDLFDLSMPPALIQWRSGSRKKPQPEAAALTHYTTNIQE,soluble
2,MKGLENAIRNLNSLDRQMVPRASIWAVNRVAQKAVSVATRKVARETVAGDNQVRGLPLKLVRQRVRLFKAGTDGKRSARIRINRGNLPAIKLGAAQVRMSKRRGKLLYRGSVLKIGPYLFRDAFIQQLANGRWHVMRRVNGKNRYPIDVVKIPLSGPLTQAFESATQSLIDEEIPKQLGYALKQQLRLYLSR,not soluble
3,MPQDSSQGRPRGDDVWVAEAKYDCNTRGRNSIMGNGALKYRTESKNFFNLIPEEVFHNTMKYLDLFLRNLRNIII,not soluble
4,MRKLKITELNRISAEEFKQAEKLPLVVVLDDIRSLHNIGSVFRTSDAFRIECIYLCGITATPPHPEMHKTALGAEFTVDWKYVNNAVDAVDNLRKEGYIVYSIEQAEGSIMLDRLELDKTKKYAIVMGNEVKGVQQEVIDHSDGCIEIPQYGTKHSLNVSVTTGIVIWDLFKKLR,not soluble
5,MLASLHIANYVLIDRLDIDFAPHFSVITGETGAGKSILLGALGLLVGGRADTSAIAPGTDRCIVEGRFTGFVPEMKAVLDRYDLDFDPDECTIRREISSKGKSRAFVNDTPAPLTALRELADFLIDIHSQHKNLLLGDSLFQLNVLDAYSGKPDLYAHYSKAYRVYAERKQKLEDLRKAAAATASEYDYWQFRFEQLDKAGLESGEEARLQEEQAMLTHALDIKRELGHSYSLLSDDERGLLSGLNKVEDALATIESYYPDSASFRQRVRDVRIELADIASDLGRRSDDVSYEPERLNAVTDRLDEILSLLHRYNADSSDALIAIRDDLAERLSRISTDEEEISRLEQEVLAFYKEIEAQASLLTEERIRAASALETSLCESLRKLNMPHVRFVVDIRSTEYGPHGADKVVFLFSANKQMEPEPVSEIASGGEIARLMLCLKALIADKRSLPAIVFDEIDTGVSGEVADRMGEIMAHMGQGMQVLAITHLPQIAARGERHYFVYKDETGERARTFIRELTPEERIREIARMQSGNNLTDVALAAAKELLAR,not soluble
6,GPGSMEPKRSGNMACVERERERDYWRHLERLNNQRCRIDNTIPVSCAYVRPIGSMRRNPARAEQVNRDNQKLVEKMVHIMNTRGGVDTSEPWRDYNKAINSQRRRNQEQANIARENAKLLDRLERTQPTYRSEKFEADRRRNEEFAARASRYPYQPMDRTRY,soluble
7,MSDEESFVILGSSPCSSLMPDSSLRSDVCGNAQEAKETVASTSTQPPTVNCIPVSITASQQQHKSLDSGSSQQQSLATSFIMGEIQSDVLKNSVYSQFPSLCSLQGSAEEVVKLQNMMTEYLALKSQPNHAELPQPDSTMAPGSRRPRTPVQGACERVPSANRDPSRGKPRAEEGPRDENRADLEHHHHHH,not soluble
8,MGSDKIHHHHHHMIKSKLKGFAAVTVACLAVTACGSDSNNEDGTDQNATYVQFYNASAGSTATALKVADKTYESVIYGDTMPRFTSTAGVSAIEVMAKDASDKDISIYKEDIDLKVATDHFFVLHGDFAEPKLLNINYSRTELDKLNEVAENSKMQLLIANTAVHAQAFDAYVSKSTQTFADAVMLGSVAYGEASQPQVMDTGEYKVYLTPAGTTNVSYTTANIKFSAKVPYKLIIREGFGASDSKITLDSVDSTTNVRNHVALEASVDYRVFNGLGSHIIDVKVASSKQETLFSEVPSFGVTAYQGAEFNDFGVSVFDHGTQNKLLDNVLITLNQDDIKTIFIYEQATEQGSQVKAMEMKQTQTPSPYSFKFDIVSFADKSNLTVYFLKANDTIETAVNKITAVNPASPQSVTVPAGEYSIKVIAVENGTKTVVYASDLMDFSNEDNVTMVLNKDPATSFGYNLIKI,not soluble
9,MKVVILGSGSYSGTPKPLCNCENCSIARRNPAFRRTRFSLYIEEGKILVDPSPDLHYHLERLNKKVENVFITHAHFDHIFGVPDLQVYKKLIISSNTLGIKVAKELSRLAFGSEVPSGYEWRYEELQFWNEYSFDNFRVIHFPVIHSLEIAGGYLFEIKGRRIGVTGDTGPEILKDEKVKKLLEGVDILIVEMTKRESIPGVHLGVSDSIEFAKVVGASYTVFAHISHTNYSHEVLEKRVRESGVQGEVARDFTIIEVLEHHHHHH,not soluble
10,MSLSTMLVAEDLSAVGGISLSSALPVLTAMQYDVAALPTSLLSTHTSGYGTPAVVDLSTWLPQVFAHWTRAQLHFDQALIGYVGSVALCQQITTYLEQQTLSLLVVDPVLGDLGQLYQGFDQDYVAAMRQLIQQADVILPNTTEAALLTGAPYQVTPDLEVILPALQAQLKTGAHAVITDVQRADQIGCAWLDEAGHVQYCGARRLPGHYNGTGDTLAAVIAGLLGRGYPLAPTLARANQWLNMAVAETIAQNRTDDRQGEGHHHHHH,not soluble
11,MSLTIAHDIDLSAVLAERLTTTHPDVLRELLAAFIHALMGAEADAVCGAGYGQRSSERTNSRNGYRHREFDTRAGTLDLAIPKLRQGSYFPDWLLERRKRAERALTTVVATCYLLGVSTRRMDKLVETLGITSLSKSQVSVMAKELDAAVEAFRTRPLDAGPYTFMAADALVLKVREAGRVVNVHALIATGVNAEGYREILGIDVTTTEDGAGWLTFLRSLTARGLSGVRLVTSDAHAGLVAAIGATLPGASWQRCRTHYATNLMAITPKSSWPWVRTLLHSVFDQPDAGSVAAQYDRIIDALADKLPKVADHLEDTRADLLAFTAFPKQIWRQIWSNNPQVICSPRDGVFDVRHEVLRSQVLRAGHAYLQLSRRQEPAEGRCRLHELSRRSRCVSRGEGHHHHHH,not soluble
12,MGSDKIHHHHHHMKSYFVTMGFNETFLLRLLNETSAQKEDSLVIVVPSPIVSGTRAAIESLRAQISRLNYPPPRIYEIEITDFNLALSKILDIILTLPEPIISDLTMGMRMINTLILLGIIVSRKRFTVYVRDEGGGSRVISFNDNTIRALMRDYSREEMKLLNVLYETKGTGITELAKMLDKSEKTLINKIAELKKFGILTQKGKDRKVELNELGLNVIKLNKSVIESSKSSEELVKENKGKEVNIPY,not soluble
13,MGSDKIHHHHHHMSDIQLSLLNDFQRGFPLTSTPFDAIAQRLGLDVEALLDTLRRLTREGVVSRVGAVFRPNRVGVSTLAAMAVPEGRLDEVARLVSARPEVNHNYEREHRFNLWFVAAAANPAQLEQALHDIEQQTGLAAMRLPMVQDYHIDLGFDLRRSVGLTDRHQQKAAPSRALELDALDYVLVEAIQEGLPLVARPYAEVAAFIGTSEADVLIRLGRLLDHGVIKRLGIVVRHHELGFRANAMVVWNIPDEQVDEFGRCVGASGLVNLCYQRPRRLPEWPYNLFCMIHGKDRDAVLEHLDHLRDQCGLTDFPCEVLFSKRRFKQTGARYLAAQPKAAAEAT,not soluble
14,MGSDKIHHHHHHGQNQNKIQEAMANYDYETAVELINKEPPTIPLLMQKAKALKGIGSNAEALRSIRQVIAEDSTNQQAHIEAAECCKAMAKYNDALDYYRKAISLNPKNKYARLQFINLLCNTKNYAEAFGESSMMSETDSSAVVLHLQAQSLEGMQQILPAIGCYEVIQDKYPDDYLAAAKLGNLNIVAGYPEYAIQATERYRERDSTNLIVNQQNALAYCHAEQYPTAIKRYEKLCQQGDSSTQTLYYLGVSYYADEYYYEAHACFSKLQKEMEENPNLLYYLGRCCAKTSWKKEGIEHLEKAIELTIPKDSTMIRLYKGLVDCCKLAQDTPKQIQALRELYKYDKTNHKLLYDIAWNYSYQLKDNKSAERYLQAFLKTRKANARKEEPVSEKGELVLGLENYYNAAENWLKDLQKEKFFKEGIPLESQKQ,not soluble
15,MGSDKIHHHHHHMGRVLIIGAGGVGTVVAHKVAQNADVFTDIMIASRTKEKCDNIVKAIGNPNIKTAKVDADNVDELVALFNDFKPEMVINVALPYQDLTIMEACLKAGVNYLDTANYEPKDEAHFEYSWQWAYHDRFKEAGLTAILGCGFDPGVSGIYTAYAAKHYFDEIQYLDIVDCNAGNHHKAFATNFNPEINIREITQNGRYYENGQWVTTGPLEIHKDLTYPNIGPRDSYLLYHEELESLVKHFPTIKRARFWMTFGQEYLTHLRVIQNIGMARIDEVDYNGTKIVPLQFLKAVLPNPQDLGENYEGETSIGCRIRGIKDGKERTYYVYNNCSHQEAYKETGMQGVSYTTGVPAMIGAMMFFKGEWQRPGVNNVEEFNPDPFMEQLNKQGLPWHEVFDKDLEL,not soluble
16,YLASDGKTIILVGKNNLQNDELTFKMSKKGELWFHAKDIPGSHVLIKDNLNPSDEIKTDAAELAAYFSKARLSNLVQVDMIEAKKLNK,not soluble
17,GPGSMFNVVLVEPEIPPNTGNVIRLCANTGARLHLIEPLGFPLDDAKMRRAGLDYHEYAQMRVHRDWDAFVAAEAPDPARMFAFTTRGSGRFHDRAFEPGDWFVFGAETRGLAPALVDRFAPEQRVRLPMRPGNRSLNLSNTVAVVVFEAWRQAGFEGGA,soluble
18,MFSAKKLSPADKLKNISSMLEEIVEDTTVPRNIRAAADNAKNALHNEEQELIVRSATAIQYLDDISEDPNMPIHTRTQIWGIVSELETIK,soluble
19,KNKKVILFAPTFRGNGHRTAHYPFFKINFARLASYCEEHQATVLFKMHPFVRNKLNIPAIYSKYFLDISNYREVNDVLFITDILISDYSSLIYEFSVFKKPMLFYAFDLEDYIYTRDFYEPYETFVPGKIVKIFDELILALENNDFELEKVKPFLNKNFKYKDGKSSERLVKDLFNKFFQ,not soluble
20,MPLNTDFFKPSKNKEKFVLVFLKRGYPSHVDLLTKIAEKVKMKSIGYKIPNAEYLERVSDEELRDLYSSALVTLYPIDFEYYGYIPVESMAAGTPVIAFRYSGGPAETIVDGETGWLASDEEEFYRLTIKVYNEGYPEDTSVKSRKRAEEFSIQN,soluble
21,MEPKRSRLVVCAPEPSHAREFPDVAVFSGGRANASQAERLARAVGRVLADRGVTGGARVRLTMANCADGPTLVQINLQVGDTPLRAQAATAGIDDLRPALIRLDRQIVRASAQWCPRPWPDRPRRRLTTPAEALVTRRKPVVLRRATPLQAIAAMDAMDYDVHLFTDAETGEDAVVYRAGPSGLRLARQHHVFPPGWSRCRAPAGPPVPLIVNSRPTPVLTEAAAVDRAREHGLPFLFFTDQATGRGQLLYSRYDGNLGLITPTGDGVADGLA,soluble
22,MGVMKGIEFSESKLKEILDQLPIEAQSAFAASCAQRIFTCYVEYARVAKSKKVDLDAYSEAISYVWNAVIAGNHDAIILNGLLERCMAVLPSEEDAWESGTPYAEDAAAAIIYSLRSLASGCPQEAIWAAKRVYEAVDNFVVNTYNVNTNATDGEKFILDHPIVSNELSRQLRDLNEIINSKRDSESLKKTIKIIMERSKSESNDLFSEAT,not soluble
